Target: GST-βPIX (UniProt Q14155)
Test: pull-down

fold amount pulled down, against GST-GIT1: 2 fold
Substance: His-tagged MYO18A-CB (His-MYO18A-CB) (domain or fragment)

— publication PMC2808764
